Assay results from patent US20170342126A1 (MAYO FOUNDATION FOR MEDICAL EDUCATION AND RESEARCH, published 2017).
Where two headings read alike, the source gives them in different places. Values belong to the molecule of their own block, whether it stands above or below them.

How the values were obtained:
HLA-DR DRB1*1501 (human) = experiment: radioligand inhibition, purified HLA-DR
HLA-DR DRB1*1302 (human) [1] = experiment: radioligand inhibition, purified HLA-DR
[2] = molecular target: purified HLA-DR molecule DRB1*0901 (human); experiment: radioligand inhibition, purified HLA-DR
[3] = molecular target: purified HLA-DR molecule DRB5*0101 (human); experiment: radioligand inhibition, purified HLA-DR
[4] = molecular target: purified HLA-DR molecule DRB1*1302 (human); experiment: radioligand inhibition, purified HLA-DR
HLA-DR DRB5*0101 (human) = experiment: radioligand inhibition, purified HLA-DR
HLA-DR DRB1*0901 (human) = experiment: radioligand inhibition, purified HLA-DR
HLA-DR DRB1*0701 = HLA-DR DRB1*0701 (human); experiment: radioligand inhibition, purified HLA-DR
HLA-DR DRB1*0101 (human) = molecular target: T1, HLA-DR DRB1*0101 (human); experiment: radioligand competition, purified HLA-DR; conditions: remark: other sources report otherwise
T1 chain 1: not shown
T1 chain 2: not shown

HLA-DR DRB1*0405 (human) = molecular target: T2, HLA-DR DRB1*0405 (human); experiment: radioligand competition, purified HLA-DR; conditions: remark: other sources report otherwise
T2 chain 1: not shown
T2 chain 2: not shown

HLA-DR DRB1*0802 (human) = molecular target: T3, HLA-DR DRB1*0802 (human); experiment: radioligand inhibition, purified HLA-DR; conditions: remark: other sources report otherwise
T3 chain 1: not shown
T3 chain 2: not shown

[5] = molecular target: at least four different HLA-DR variants (of 15 different purified HLA-DR molecules); experiment: radioligand inhibition, purified HLA-DR
HLA-DR DRB1*0401 (human) [6] = molecular target: T4, HLA-DR DRB1*0401 (human); experiment: radioligand inhibition, purified HLA-DR; conditions: remark: other sources report otherwise
T4 chain 1: not shown
T4 chain 2: not shown

HLA-DR DRB1*0404 (human) = molecular target: T5, HLA-DR DRB1*0404 (human); experiment: radioligand competition, purified HLA-DR; conditions: remark: other sources report otherwise
T5 chain 1: not shown
T5 chain 2: not shown

HLA-DR DRB4*0101 (human) = molecular target: T6, HLA-DR DRB4*0101 (human); experiment: radioligand inhibition, purified HLA-DR; conditions: remark: other sources report otherwise
T6 chain 1: not shown
T6 chain 2: not shown

HLA-DR DRB1*0401 (human) [7] = molecular target: T4, HLA-DR DRB1*0401 (human); experiment: radioligand competition, purified HLA-DR; conditions: remark: other sources report otherwise
HLA-DR DRB1*1302 (human) [8] = molecular target: T7, HLA-DR DRB1*1302 (human); experiment: radioligand inhibition, purified HLA-DR; conditions: remark: other sources report otherwise
T7 chain 1: not shown
T7 chain 2: not shown

Molecule: Peptide 9019.0009, Cyclin D1.129
IC50 (HLA-DR DRB1*1302 (human) [1]): 3490 nM

Molecule: Peptide 9019.0005, CEA.122
IC50 (HLA-DR DRB1*0701): 6340 nM | IC50 (HLA-DR DRB1*1302 (human) [1]): 9960 nM

Molecule: TEILKGGVLIQRNPQ [Peptide 9019.0039]
IC50 (HLA-DR DRB1*0101 (human)): 71 nM

Molecule: GTDMKLRLPASPETH [Peptide 9019.0027, Her2/neu.28]
IC50 (HLA-DR DRB1*0701): 6810 nM

Molecule: HNQVRQVPLQRLRIV [Peptide 9019.0034, Her2/neu.88]
IC50 (HLA-DR DRB1*0802 (human)): 95 nM | IC50 [5]: < 1000 nM

Molecule: KELAVFREKVTEQHR [9019.0186]
IC50 (HLA-DR DRB1*0401 (human) [6]): 21 nM

Molecule: GYVIGTQQATPGPAY [9019.0110]
IC50 (HLA-DR DRB4*0101 (human)): 6.3 nM

Molecule: TTPVTGASPGGLREL [Peptide 9019.0037, Her2/neu.126]
IC50 (HLA-DR DRB1*1302 (human) [8]): 605 nM

The remaining lines, values ahead:

IC50 (HLA-DR DRB1*1501 (human)): 376 nM | IC50 (HLA-DR DRB1*1302 (human) [1]): 394 nM
Molecule: Peptide 9019.0115, CEA.126

IC50 [2]: 1910 nM
Molecule: Peptide 9019.0118 (CEA.176)

IC50 [3]: 2280 nM | IC50 [4]: 1920 nM
Molecule: Peptide 9019.0126 (CEA.354)

IC50 (HLA-DR DRB5*0101 (human)): 2280 nM | IC50 (HLA-DR DRB1*1302 (human) [1]): 1920 nM
Molecule: Peptide 9019.0126, CEA.354

IC50 (HLA-DR DRB1*0901 (human)): 1910 nM
Molecule: Peptide 9019.0118, CEA.176

IC50 (HLA-DR DRB1*0405 (human)): 1450 nM
Molecule: SDSVILNVLYGPDAP [Peptide 9019.0119]

IC50 (HLA-DR DRB1*0101 (human)): 139 nM
Molecule: CYGLGMEHLREVRAV [Peptide 9019.0044]

IC50 (HLA-DR DRB1*0405 (human)): 1850 nM | IC50 (HLA-DR DRB1*0404 (human)): 26 nM
Molecule: VCGIQNSVSANRSDP [Peptide 9019.0135]

IC50 (HLA-DR DRB1*0405 (human)): 3170 nM | IC50 (HLA-DR DRB1*0401 (human) [7]): 95 nM
Molecule: KLCIYTDNSIRPEEL [Peptide 9019.0159]

IC50 [5]: < 1000 nM
Molecule: AQTFVALCATDVKFI [Peptide 9019.0168, Cyclin D1.182]
